Laboratory results taken from US20100184636A1 (POSTECH ACADEMY INDUSTRY FOUNDATION, published 2010).

Experiments:
[1] = target: T1, phospholipase D2, wild type (PLD2^wt) (Homo sapiens, UniProt O14939 1-933); assay: co-IP with anti-HA antibody of HA-raptor constructs with PLD2^wt (FIG. 11)
T1 construct: also called recombinant PLD2; hPLD2
Procedure: (§1) After harvesting COS7 cells, total extracts were prepared by brief sonication in ice-cold lysis buffer (40 mM HEPES pH7.5, 120 mM NaCl, 1 mM EDTA, 10 mM pyrophosphate, 10 mM glycerophosphate, 50 mM NaF, 1.5 mM Na₃VO₄, 0.5% CHAPS, 1 mM PMSF, protease inhibitor cocktails). Clarified extracts were mixed with 2 μg of the respective antibodies. Then protein A-Sepharose beads were added to isolate the antibody complex. After four washings with lysis buffer, the final immunoprecipitates were washed once with wash buffer (50 mM HEPES pH7.5, 150 mM NaCl), and then subjected to SDS-PAGE using Hyperfilm (Amersham Pharmacia Biotech), nitrocellulose membranes (Watmann), Power supply (Amersham Pharmacia Biotech), Electrophoretic Transfer unit (Hoefer Scientific Instruments), and ECL™ (Amersham Pharmacia Biotech).

[2] = target: myc-mTOR^wt (human, UniProt P42345 1-2549); assay: co-IP of myc-mTOR^wt with PLD2 fragments (FIG. 5)
Procedure: as §1

Binder | binding result [1] | binding result [2]
HA-raptor^1020-1335 (other, also called WD40 repeat region of raptor; not shown: HA tag) NRNPGVPSVVKFHPFTPCIAVADKDSICFWDWEKGEKLDYFHNGNPRYTRVTAMEYLNGQDCSLLLTATDDGAIRVWKNFADLEKNPEMVTAWQGLSDMLPTTRGAGMVVDWEQETGLLMSSGDVRIVRIWDTDREMKVQDIPTGADSCVTSLSCDSHRSLIVAGLGDGSIRVYDRRMALSECRVMTYREHTAWVVKASLQKRPDGHIVSVSVNGDVRIFDPRMPESVNVLQIVKGLTALDIHPQADLIACGSVNQFTAIYNSSGELINNIKYYDGFMGQRVGAISCLAFHPHWPHLAVGSNDYYISVYSVEKRVR | binds | –
PLD2^ΔN308 (enzyme, N-terminal 308 residues deleted, by analogy with ΔN184; also called ΔN308 PLD2) LAQGPGRDFLQLHRHDSYAPPRPGTLARWFVNGAGYFAAVADAILRAQEEIFITDWWLSPEVYLKRPAHSDDWRLDIMLKRKAEEGVRVSILLFKEVELALGINSGYSKRALMLLHPNIKVMRHPDQVTLWAHHEKLLVVDQVVAFLGGLDLAYGRWDDLHYRLTDLGDSSESAASQPPTPRPDSPATPDLSHNQFFWLGKDYSNLITKDWVQLDRPFEDFIDRETTPRMPWRDVGVVVHGLPARDLARHFIQRWNFTKTTKAKYKTPIYPYLLPKSTSTANQLPFTLPGGQCTTVQVLRSVDRWSAGTLENSILNAYLHTIRESQHFLYIENQFFISCSDGRTVLNKVGDEIVDRILKAHKQGWCYRVYVLLPLLPGFEGDISTGGGNSIQAILHFTYRTLCRGEYSILHRLKAAMGTAWRDYISICGLRTHGELGGHPVSELIYIHSKVLIADDRTVIIGSANINDRSLLGKRDSELAVLIEDTETEPSLMNGAEYQAGRFALSLRKHCFGVILGANTRPDLDLRDPICDDFFQLWQDMAESNANIYEQIFRCLPSNATRSLRTLREYVAVEPLATVSPPLARSELTQVQGHLVHFPLKFLEDESLLPPLGSKEGMIPLEVWT | – | no binding
